Tests used:
Test in all cases: holdup assay
Set-up in all cases: key: below the threshold = too weak to quantify, mostly under pKd 3.1 to 4
DFNB31_3, Q9P202 = target: T1, DFNB31_3, Q9P202
T1 sequence (Q9P202 811-907, limits assumed, looked up): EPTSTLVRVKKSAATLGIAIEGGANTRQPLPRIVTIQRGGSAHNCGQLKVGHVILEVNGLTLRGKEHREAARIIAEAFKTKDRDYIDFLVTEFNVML

LIN7C, Q9NUP9 = target: T2, LIN7C, Q9NUP9
T2 sequence (Q9NUP9 88-185, limits assumed, looked up): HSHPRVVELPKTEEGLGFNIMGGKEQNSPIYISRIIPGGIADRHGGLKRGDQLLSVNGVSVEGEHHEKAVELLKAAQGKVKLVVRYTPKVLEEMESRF

SCRIB_2, Q14160 = target: SCRIB_2, Q14160
GRIP1_5, Q9Y3R0 = target: T3, GRIP1_5, Q9Y3R0
T3 sequence (Q9Y3R0 568-668, limits assumed, looked up): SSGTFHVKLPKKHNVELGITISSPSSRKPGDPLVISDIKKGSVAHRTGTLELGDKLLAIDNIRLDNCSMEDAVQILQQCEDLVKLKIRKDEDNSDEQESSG

FRMPD2_3, Q68DX3 = target: FRMPD2_3, Q68DX3
GORASP2, Q9H8Y8 = target: GORASP2, Q9H8Y8
GRIP2_3, Q9C0E4 = target: GRIP2_3, Q9C0E4
SIPA1L2, Q9P2F8 = target: T4, SIPA1L2, Q9P2F8
T4 sequence (Q9P2F8 945-1036, limits assumed, looked up): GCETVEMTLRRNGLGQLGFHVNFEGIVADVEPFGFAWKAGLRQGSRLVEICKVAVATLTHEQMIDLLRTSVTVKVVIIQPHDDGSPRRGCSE

GORASP1, Q9BQQ3 = target: GORASP1, Q9BQQ3
DVL3, Q92997 = target: T5, DVL3, Q92997
T5 sequence (Q92997 244-331, limits assumed, looked up): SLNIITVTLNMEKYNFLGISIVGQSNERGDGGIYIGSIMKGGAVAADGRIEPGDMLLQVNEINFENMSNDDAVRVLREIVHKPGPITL

FRMPD4, Q14CM0 = target: FRMPD4, Q14CM0
GRID2IP_1, A4D2P6 = target: GRID2IP_1, A4D2P6
SHANK1, Q9Y566 = target: T6, SHANK1, Q9Y566
T6 sequence (Q9Y566 658-767, limits assumed, looked up): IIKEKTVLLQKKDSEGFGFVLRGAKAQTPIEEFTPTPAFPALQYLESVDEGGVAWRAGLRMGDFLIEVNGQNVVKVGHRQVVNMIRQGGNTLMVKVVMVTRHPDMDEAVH

NHERF3_3, Q5T2W1 = target: T7, NHERF3_3, Q5T2W1
T7 sequence (Q5T2W1 238-333, limits assumed, looked up): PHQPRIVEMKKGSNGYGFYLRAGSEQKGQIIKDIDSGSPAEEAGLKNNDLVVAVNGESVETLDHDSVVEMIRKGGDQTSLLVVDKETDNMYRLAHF

MAGI3_2, Q5TCQ9 = target: MAGI3_2, Q5TCQ9
TJP1_2, Q07157 = target: TJP1_2, Q07157
LNX2_2, Q8N448 = target: T8, LNX2_2, Q8N448
T8 sequence (Q8N448 334-432, limits assumed, looked up): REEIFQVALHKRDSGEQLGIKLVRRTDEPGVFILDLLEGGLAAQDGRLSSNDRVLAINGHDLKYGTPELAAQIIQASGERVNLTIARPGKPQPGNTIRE

NHERF3_4, Q5T2W1 = target: T9, NHERF3_4, Q5T2W1
T9 sequence (Q5T2W1 373-468, limits assumed, looked up): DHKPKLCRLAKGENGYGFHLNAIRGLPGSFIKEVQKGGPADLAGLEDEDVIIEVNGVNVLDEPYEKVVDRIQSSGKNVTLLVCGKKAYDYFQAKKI

MPDZ_5, O75970 = target: T10, MPDZ_5, O75970
T10 sequence (O75970 695-796, limits assumed, looked up): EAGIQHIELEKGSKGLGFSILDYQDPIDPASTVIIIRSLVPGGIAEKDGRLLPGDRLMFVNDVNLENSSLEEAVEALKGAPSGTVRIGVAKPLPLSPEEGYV

PICK1, Q9NRD5 = target: PICK1, Q9NRD5
LNX1_2, Q8TBB1 = target: LNX1_2, Q8TBB1
SNTB1, Q13884 = target: T11, SNTB1, Q13884
T11 sequence (Q13884 107-205, limits assumed, looked up): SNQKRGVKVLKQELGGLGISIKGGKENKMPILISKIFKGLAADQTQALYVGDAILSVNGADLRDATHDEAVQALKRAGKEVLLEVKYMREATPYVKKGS

DLG3_2, Q92796 = target: T12, DLG3_2, Q92796
T12 sequence (Q92796 221-321, limits assumed, looked up): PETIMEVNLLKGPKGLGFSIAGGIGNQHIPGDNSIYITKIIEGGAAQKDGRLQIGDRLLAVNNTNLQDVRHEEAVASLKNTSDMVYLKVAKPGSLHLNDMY

AHNAK1, Q09666 = target: AHNAK1, Q09666
Inadl_2, Q8NI35 = target: Inadl_2, Q8NI35
[1] = plain residues with an end cap or a label only (N-terminal biotin on a linker: ahx)
[2] = plain residues with an end cap or a label only (N-terminal biotin on a linker: ado-ado)

Chain of GRID2IP_1, A4D2P6 (A4D2P6 1-87): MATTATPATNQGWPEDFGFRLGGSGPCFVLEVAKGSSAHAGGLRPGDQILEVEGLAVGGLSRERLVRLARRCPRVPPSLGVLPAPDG
Chain of SCRIB_2, Q14160 (Q14160 857-960): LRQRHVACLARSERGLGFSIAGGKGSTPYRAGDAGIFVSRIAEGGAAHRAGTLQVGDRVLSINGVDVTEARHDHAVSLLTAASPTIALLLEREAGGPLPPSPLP
Chain of GORASP1, Q9BQQ3 (Q9BQQ3 1-208): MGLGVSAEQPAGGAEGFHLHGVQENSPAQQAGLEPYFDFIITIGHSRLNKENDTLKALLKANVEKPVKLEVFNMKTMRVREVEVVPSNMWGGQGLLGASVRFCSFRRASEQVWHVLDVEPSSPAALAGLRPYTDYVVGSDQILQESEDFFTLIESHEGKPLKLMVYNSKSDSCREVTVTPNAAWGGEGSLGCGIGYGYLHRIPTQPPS
Chain of Inadl_2, Q8NI35 (Q8NI35 238-335): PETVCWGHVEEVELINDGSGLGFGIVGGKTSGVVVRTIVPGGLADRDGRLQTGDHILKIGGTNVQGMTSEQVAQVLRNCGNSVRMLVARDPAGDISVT
Chain of MAGI3_2, Q5TCQ9 (Q5TCQ9 398-503): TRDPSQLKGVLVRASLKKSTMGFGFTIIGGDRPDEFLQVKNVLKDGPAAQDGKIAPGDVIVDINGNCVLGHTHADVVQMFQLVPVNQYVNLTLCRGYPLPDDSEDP
Chain of PICK1, Q9NRD5 (Q9NRD5 17-115): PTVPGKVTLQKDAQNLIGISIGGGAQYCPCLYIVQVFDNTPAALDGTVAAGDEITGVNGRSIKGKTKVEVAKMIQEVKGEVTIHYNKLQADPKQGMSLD
Chain of GRIP2_3, Q9C0E4 (Q9C0E4 238-339): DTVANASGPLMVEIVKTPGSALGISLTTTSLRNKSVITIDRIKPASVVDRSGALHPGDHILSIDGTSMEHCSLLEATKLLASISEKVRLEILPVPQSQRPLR
Chain of TJP1_2, Q07157 (Q07157 181-274): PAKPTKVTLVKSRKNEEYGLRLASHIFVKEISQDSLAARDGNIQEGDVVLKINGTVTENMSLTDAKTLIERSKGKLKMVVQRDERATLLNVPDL
Chain of FRMPD2_3, Q68DX3 (Q68DX3 1073-1166): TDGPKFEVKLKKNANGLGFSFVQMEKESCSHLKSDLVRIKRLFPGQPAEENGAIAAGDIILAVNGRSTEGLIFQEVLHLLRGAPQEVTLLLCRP
Chain of AHNAK1, Q09666 (Q09666 4-100): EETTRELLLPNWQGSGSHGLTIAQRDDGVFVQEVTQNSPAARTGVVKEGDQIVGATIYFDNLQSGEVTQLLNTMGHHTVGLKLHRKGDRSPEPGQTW
Chain of FRMPD4, Q14CM0 (Q14CM0 67-160): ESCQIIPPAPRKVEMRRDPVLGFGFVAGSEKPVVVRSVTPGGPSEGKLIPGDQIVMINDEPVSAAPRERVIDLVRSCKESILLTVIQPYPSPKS
Chain of LNX1_2, Q8TBB1 (Q8TBB1 371-470): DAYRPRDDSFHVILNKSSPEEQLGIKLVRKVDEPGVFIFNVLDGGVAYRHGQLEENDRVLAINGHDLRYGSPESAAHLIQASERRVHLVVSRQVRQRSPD

QNTDDVQTSF [ACE2, Q9BYF1]
pKd (DFNB31_3, Q9P202; [1]): below the threshold
pKd (LIN7C, Q9NUP9; [1]): below the threshold
pKd (SCRIB_2, Q14160; [1]): below the threshold
pKd (GRIP1_5, Q9Y3R0; [1]): below the threshold
pKd (FRMPD2_3, Q68DX3; [1]): below the threshold
pKd (GORASP2, Q9H8Y8; [1]): below the threshold
pKd (GRIP2_3, Q9C0E4; [1]): below the threshold
pKd (SIPA1L2, Q9P2F8; [1]): below the threshold
pKd (GORASP1, Q9BQQ3; [1]): below the threshold
pKd (DVL3, Q92997; [1]): below the threshold
pKd (FRMPD4, Q14CM0; [1]): 3.67
pKd (GRID2IP_1, A4D2P6; [1]): below the threshold
pKd (SHANK1, Q9Y566; [1]): 4.75
pKd (NHERF3_3, Q5T2W1; [1]): below the threshold
pKd (MAGI3_2, Q5TCQ9; [1]): below the threshold
pKd (TJP1_2, Q07157; [1]): below the threshold
pKd (LNX2_2, Q8N448; [1]): below the threshold
pKd (NHERF3_4, Q5T2W1; [1]): 3.57
pKd (MPDZ_5, O75970; [1]): below the threshold
pKd (PICK1, Q9NRD5; [1]): below the threshold
pKd (LNX1_2, Q8TBB1; [1]): below the threshold
pKd (SNTB1, Q13884; [1]): below the threshold
pKd (DLG3_2, Q92796; [1]): 3.76
pKd (AHNAK1, Q09666; [1]): below the threshold
pKd (Inadl_2, Q8NI35; [1]): below the threshold

QSGLYESEEL [MYOT, Q9UBF9]
pKd (DFNB31_3, Q9P202; [2]): 3.5
pKd (LIN7C, Q9NUP9; [2]): 3.58
pKd (SCRIB_2, Q14160; [2]): below the threshold
pKd (GRIP1_5, Q9Y3R0; [2]): below the threshold
pKd (FRMPD2_3, Q68DX3; [2]): below the threshold
pKd (GORASP2, Q9H8Y8; [2]): below the threshold
pKd (GRIP2_3, Q9C0E4; [2]): below the threshold
pKd (SIPA1L2, Q9P2F8; [2]): below the threshold
pKd (GORASP1, Q9BQQ3; [2]): below the threshold
pKd (DVL3, Q92997; [2]): below the threshold
pKd (FRMPD4, Q14CM0; [2]): below the threshold
pKd (GRID2IP_1, A4D2P6; [2]): below the threshold
pKd (SHANK1, Q9Y566; [2]): 3.72
pKd (NHERF3_3, Q5T2W1; [2]): below the threshold
pKd (MAGI3_2, Q5TCQ9; [2]): below the threshold
pKd (TJP1_2, Q07157; [2]): below the threshold
pKd (LNX2_2, Q8N448; [2]): below the threshold
pKd (NHERF3_4, Q5T2W1; [2]): below the threshold
pKd (MPDZ_5, O75970; [2]): below the threshold
pKd (PICK1, Q9NRD5; [2]): below the threshold
pKd (LNX1_2, Q8TBB1; [2]): below the threshold
pKd (SNTB1, Q13884; [2]): below the threshold
pKd (DLG3_2, Q92796; [2]): 4.21
pKd (AHNAK1, Q09666; [2]): below the threshold
pKd (Inadl_2, Q8NI35; [2]): below the threshold

Reference: publication PMC9482650, “Quantitative fragmentomics allow affinity mapping of interactomes” (Nature Communications, 2022)
